Experimental data from US20240158457A1, “INTERLEUKIN-18 RECEPTOR BINDING POLYPEPTIDES AND USES THEREOF” (Medikine, Inc., priority 2022, published 2024).

Molecular target: human IL-18 receptor (alpha and beta subunits) on HEK-BLUE IL-18 reporter cells (human) (UniProt Q13478)
Assay: cell-based or functional assay

Chain of human IL-18 receptor (alpha and beta subunits) on HEK-BLUE IL-18 reporter cells (human) (Q13478 19-541, chain 1 of 2): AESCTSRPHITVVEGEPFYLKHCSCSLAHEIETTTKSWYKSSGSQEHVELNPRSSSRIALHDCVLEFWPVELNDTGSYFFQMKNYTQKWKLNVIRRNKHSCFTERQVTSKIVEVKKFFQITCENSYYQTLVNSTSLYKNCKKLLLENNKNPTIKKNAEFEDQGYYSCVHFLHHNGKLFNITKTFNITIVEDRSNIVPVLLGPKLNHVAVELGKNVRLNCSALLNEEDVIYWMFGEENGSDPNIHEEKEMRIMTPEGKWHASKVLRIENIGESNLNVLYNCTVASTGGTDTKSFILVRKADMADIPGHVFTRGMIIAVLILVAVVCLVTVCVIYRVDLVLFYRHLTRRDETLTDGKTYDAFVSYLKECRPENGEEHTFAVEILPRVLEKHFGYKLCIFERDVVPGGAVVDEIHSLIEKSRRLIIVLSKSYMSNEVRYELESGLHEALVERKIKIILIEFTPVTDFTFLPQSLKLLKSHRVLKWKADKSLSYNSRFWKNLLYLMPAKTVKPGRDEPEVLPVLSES
Chain of human IL-18 receptor (alpha and beta subunits) on HEK-BLUE IL-18 reporter cells (human) (O95256 20-599, chain 2 of 2, further chain): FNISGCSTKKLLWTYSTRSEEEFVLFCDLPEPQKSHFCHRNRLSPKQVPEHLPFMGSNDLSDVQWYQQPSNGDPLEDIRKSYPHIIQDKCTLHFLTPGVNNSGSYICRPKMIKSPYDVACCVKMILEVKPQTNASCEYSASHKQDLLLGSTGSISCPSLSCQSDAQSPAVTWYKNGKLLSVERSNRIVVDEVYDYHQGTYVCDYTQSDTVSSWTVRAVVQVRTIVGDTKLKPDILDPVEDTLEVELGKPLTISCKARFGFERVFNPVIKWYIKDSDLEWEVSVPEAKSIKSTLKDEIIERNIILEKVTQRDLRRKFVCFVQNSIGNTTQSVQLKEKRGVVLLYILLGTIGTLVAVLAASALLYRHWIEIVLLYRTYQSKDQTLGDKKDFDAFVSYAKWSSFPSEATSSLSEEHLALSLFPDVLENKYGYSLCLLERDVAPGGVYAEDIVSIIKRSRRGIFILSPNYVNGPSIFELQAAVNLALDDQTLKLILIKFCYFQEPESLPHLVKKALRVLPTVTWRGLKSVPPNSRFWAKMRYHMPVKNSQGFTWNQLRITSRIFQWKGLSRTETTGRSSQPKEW

Substance: Human recombinant IL-18 (R&D Systems #9124-IL-050/CF) (from UniProt Q14116 1-193) (ligand)
- EC50, NF-κB reporter activity in HEK-BLUE IL-18 cells: 0.38 pM
